Source: paper PMC3891831

Assays:
GST-MEIOB construct A [1] = molecular target: T1, GST-MEIOB construct A (Mus musculus, UniProt Q9D513 136-307); experiment: EMSA
T1 sequence: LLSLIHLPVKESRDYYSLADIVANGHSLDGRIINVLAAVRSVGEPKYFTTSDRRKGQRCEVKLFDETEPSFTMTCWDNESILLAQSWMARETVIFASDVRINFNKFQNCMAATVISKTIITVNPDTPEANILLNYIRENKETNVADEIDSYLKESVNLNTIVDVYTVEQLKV

GST-MEIOB construct A [2] = molecular target: T1, GST-MEIOB construct A; experiment: EMSA; remark: listed apart in the source

GTGTGTGTGTGTGTGTGTGTGTGTGTGTGTGTGTGT (ssDNA) [d36GT]
Kd (GST-MEIOB construct A [1]): 400 nM

B1: dsDNA 36 bp (dsDNA)
DNA 1: GTGTGTGTGTGTGTGTGTGTGTGTGTGTGTGTGTGT
DNA 2: ACACACACACACACACACACACACACACACACACAC
binding result (GST-MEIOB construct A [2]): no binding

B2: 3' flap (30 nt) (dsDNA)
DNA 1: CGATAGTCGGATCCTCTAGACAGCTCCATGGTGTGTGTGTGTGTGTGTGTGTGTGTGTGT
DNA 2: CATGGAGCTGTCTAGAGGATCCGACTATCG
binding result (GST-MEIOB construct A [2]): binds

B3: 5' flap (30 nt) (dsDNA)
DNA 1: GTGTGTGTGTGTGTGTGTGTGTGTGTGTGTGGACATCTTTGCCCACCTGCAGGTTCACCC
DNA 2: GGGTGAACCTGCAGGTGGGCAAAGATGTCC
binding result (GST-MEIOB construct A [2]): binds
